Results: patent US20240301076A1

Target: human CXCR2 (human) (UniProt P25025)
Test: cell-based or functional assay

Sequence of human CXCR2 (human) (P25025 whole entry): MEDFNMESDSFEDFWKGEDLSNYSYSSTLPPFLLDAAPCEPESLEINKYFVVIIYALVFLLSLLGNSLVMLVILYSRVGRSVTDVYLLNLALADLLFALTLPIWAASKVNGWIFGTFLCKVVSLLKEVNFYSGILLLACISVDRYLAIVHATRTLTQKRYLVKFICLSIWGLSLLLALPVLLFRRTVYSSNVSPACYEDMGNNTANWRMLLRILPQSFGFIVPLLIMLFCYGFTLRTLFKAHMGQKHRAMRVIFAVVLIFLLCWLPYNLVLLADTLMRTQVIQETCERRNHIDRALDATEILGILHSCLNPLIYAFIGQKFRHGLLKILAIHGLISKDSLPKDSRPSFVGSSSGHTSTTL

B1: human CXCL7 (ligand, UniProt P02775 59-128, looked up)
chain: AELRCMCIKTTSGIHPKNIQSLEVIGKGTHCNQVEVIATLKDGRKICLDPDAPRIKKIVQKKLAGDESAD
  EC50 mean, Tango assay: 0.0396 µM
  EC50 mean, calcium flux assay: 0.00714 µM
